Test results taken from the supplement of paper PMC10201428.
± gives the standard deviation of the averaged measurements.

B1: library; a variant is named by its letters at N, in order (parent)
chain: AATGTTGTTGATGCAACCATAAAGTGATATTTAATAATTATTTATAATCAGCAACTTAACCACAAAACAACCATATATTGATATNTCACAAAACAACCATAANTTGATATTTTTGTGAATCGAGTATTTCAGCAAAACTACTGCAGTAAGAA

Experiments:
[1] = variants of: B1; assay: relative integration efficiency (T-LR orientation) vs wild-type transposon end (log2 (normalized fold change)); transposon end mutated: left end; higher = more efficient transposition; conditions: with VchCAST RNA-guided transposition machinery (E. coli BL21(DE3) host, lacZ target)
Summary of the method: (§1)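 A T7-driven effector plasmid encoding a CRISPR array, tniQ-cas8-cas7-cas6 and tnsA-tnsB-tnsC was co-transformed into E. coli BL21(DE3) together with a pUC57 mini-transposon donor holding barcoded pools of 1549 left-end or 1849 right-end variants. Transformants were plated with 0.1 mM IPTG at 37°C for 18 h. Illumina sequencing of PCR-amplified input plasmids and genomic integration junctions gave barcode abundances, and relative integration efficiency is their output/input fold change, normalised to reference barcodes and log-transformed.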

[2] = variants of: B1; assay: relative integration efficiency (T-RL orientation) vs wild-type transposon end (log2 (normalized fold change)); transposon end mutated: left end; higher = more efficient transposition; conditions: with VchCAST RNA-guided transposition machinery (E. coli BL21(DE3) host, lacZ target)
Summary of the method: as §1

Variant | relative integration efficiency (log2) [1] | relative integration efficiency (log2) [2]
CG T100G A101C | -3.81 ± 1.3 | -2.16 ± 0.7
TG T76A A77G C87T | 0.266 ± 0.15 | -0.247 ± 0.35
CG A44G T45C A47T T48A C49A G51A C52A A53T A54T T56A A58C |  | -6.6 ± 1.8
CG T76A A77T T78A T79A | -0.702 ± 1.2 | -0.611 ± 0.38
CG T108G A109C T110G T111G | -2.71 ± 1.1 | -1.63 ± 0.69
CG T74A A75T | -0.113 ± 0.66 | -0.22 ± 0.27
CG T74A | -0.12 ± 0.44 | -0.331 ± 0.2
CG T74G | -1.2 ± 1.2 | -1.35 ± 0.79
CG T74C | -0.976 ± 1.2 | -1.33 ± 0.63
CT T104G T105G G106T | -1.03 ± 0.46 | -1.06 ± 0.9
CT A23C G24T A77C T78G T104G | -0.239 ± 0.088 | -0.527 ± 0.28
CG T125G | 0.265 ± 0.28 | -0.0179 ± 0.099
CG T116G G117T A118C A119C T120G C121A G122T A123C G124T T125G | -0.144 ± 0.39 | -0.0959 ± 0.032
CT | 0.219 ± 0.67 | -0.0852 ± 0.034
CG T6A G7C T8A T9A |  | -6.58 ± 0.36
CG T108A A109T T110A T111A | -1.21 ± 0.27 | -0.957 ± 0.51
CG T56G T57G | -1.54 ± 0.34 | -1.59 ± 0.66
CG T86A | 0.731 ± 0.2 | 0.656 ± 0.025
CG T86G | 0.0399 ± 0.26 | -0.108 ± 0.045
CG T86C | 0.176 ± 0.013 | -0.261 ± 0.092
CG T116A G117C A118T A119T | 0.00543 ± 0.19 | 0.0211 ± 0.042
CG T79G G80T A81C T82G | -2.43 ± 1.1 | -2.68 ± 0.95
CG C55A T56G T57G A58C |  | -2.14 ± 0.62
CT A23C A77C | -0.217 ± 1.2 | -0.234 ± 0.065
CG T114G T120A | 0.16 ± 0.11 | -0.2 ± 0.041
CG T113C | 0.405 ± 0.02 | 0.263 ± 0.16
CG T113A | -0.342 ± 0.22 | -0.277 ± 0.047
CG T113G | 0.451 ± 0.17 | -0.0711 ± 0.12
CG T76A A77T | -0.19 ± 0.3 | 0.117 ± 0.012
CG T104A T105A | -0.853 ± 0.48 | -0.642 ± 0.47
